*1 amine or outer side, *2 acyl side, *3 side chain or, on linkers, in order; H or OH if unused. Primed or numbered codes have the meaning given here. Where no end group is shown, it is not given here. Side-chain parts run from the residue outwards. [ ]: non-standard residue; d: D form. The star is where a group is joined. PEG4′ = 4 PEG units (K(PEGxpalm): Lys with x PEG units and palmitoyl at epsilon N, C-terminal (PEG)4); γGlu = O=C(O)[C@H](CCC(=O)[*:2])N[*:1]; Palmitoyl = CCCCCCCCCCCCCCCC(=O)*
Experiments:
[1] = target: human GLP-1 receptor (GLP-1R) (human, UniProt P43220 24-463); assay: cell-based or functional assay
[2] = target: human glucagon receptor (GCGR) (human, UniProt P47871 26-477); assay: cell-based or functional assay
human glucagon receptor (GCGR), sequence (P47871 26-477): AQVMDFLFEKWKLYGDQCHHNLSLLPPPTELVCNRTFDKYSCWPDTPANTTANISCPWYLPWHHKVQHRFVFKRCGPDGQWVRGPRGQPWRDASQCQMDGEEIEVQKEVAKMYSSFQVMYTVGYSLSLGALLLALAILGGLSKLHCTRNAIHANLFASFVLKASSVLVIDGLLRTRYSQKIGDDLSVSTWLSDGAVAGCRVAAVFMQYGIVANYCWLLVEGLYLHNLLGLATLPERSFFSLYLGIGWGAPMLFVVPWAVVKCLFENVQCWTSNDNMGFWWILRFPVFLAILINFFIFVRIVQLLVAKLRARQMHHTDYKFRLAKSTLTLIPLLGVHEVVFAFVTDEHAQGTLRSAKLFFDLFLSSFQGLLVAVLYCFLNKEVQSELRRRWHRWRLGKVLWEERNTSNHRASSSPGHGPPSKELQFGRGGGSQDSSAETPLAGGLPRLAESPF

Binder | cAMP activity, GLP1 EC50 nM [1] [nM] | cAMP activity, Glcg EC50 nM [2] [nM]
HSQGTFTSDYSKYLDSXRAQDFVQWLE (K(PEG3-palm) at 17; C-terminal PEG4) [g503] | 0.02 | 0.002
HSQGTFTSDYSKYLDSXRAQDFVQWLV (not fully specified; K(PEG4-palm) at 17; C-terminal PEG12) [g440] | 0.008 | 0.002
HGQGTFTSDYSKYLDSXRAQDFVQWLE (K(gE-palm) at 17; C-terminal PEG4) [g516] | 0.6 | 0.08
HSQGTFTSDYSXYLDSRRAQDFVQWLV (not fully specified; K(PEG4-palm) at 12; C-terminal PEG4) [g417] | 0.02 | 0.003
HSQGTFTSDYSKYLDK([PEG4′-Palmitoyl])RRAQDFVQWLE[PEG4′] [g495] | 0.09 | 0.002
HSQGTFTSDYSKYLDSKRAQDFVQWLEA (K(gE-palm) at 17 (printed as B); C-terminal PEG2) [g533] | 0.09 | 0.003
HSQGTFTSDYSKYLDSRK([γGlu-Palmitoyl])AQDFVQWLV[PEG4′] [g422] | 0.2 | 0.7
HSQGTFTSDYSKYLDSXRAQDFVQWLE (not fully specified; K(PEG4-palm) at 17; C-terminal PEG4) [g429] | 0.004 | 0.005
HSEGTFTSDYSKYK([γGlu-Palmitoyl])DSRRAQDFVQWLV[PEG4′] [g515] | 0.1 | 0.4
HSQGTFTSDYSKYLDK([γGlu-Palmitoyl])RRAQDFVQWLV[PEG4′] [g424] | 0.4 | 0.009
HGQGTFTSDYSKYLDSEK([γGlu-Palmitoyl])ARDFVAWLV[PEG4′] [g735] | 0.8 | > 1800
HGQGTFTSDYSKYK([γGlu-Palmitoyl])DSRRAQDFVQWLV[PEG4′] [g514] | 0.1 | 0.02
HSQGTFTSDYSKYLDSRK([γGlu-Palmitoyl])AQDFVQWLE[PEG4′] [g454] | 0.5 | 0.08
HSQGTFTSDYSKYLDSXRAQDFVQWLE (K(PEG2-palm) at 17; C-terminal PEG4) [g502] | 0.03 | 0.001
HSQGTFTSDYSKYLDSXRAQDFVQWLV (not fully specified; K(PEG4-palm) at 17; C-terminal PEG8) [g439] | 0.008 | 0.002
HSQGTFTSDYSKYLDSRRAQDFVQWLV (C-terminal 6-aminohexanoic acid (Ahx)) [g357] | 1.6 | 0.08
HSQGTFTSDYSKYLDSRRAQDFVQWLV (C-terminal 11-aminoundecanoic acid (Aud)) [g358] | 3.2 | 0.03

— patent US20160017016A1 (AstraZeneca / MedImmune, published 2016)
